Experimental data as given in patent US20160355587A1.

T1: human CD166 protein (human) (UniProt Q13740)
T1 sequence (looked up): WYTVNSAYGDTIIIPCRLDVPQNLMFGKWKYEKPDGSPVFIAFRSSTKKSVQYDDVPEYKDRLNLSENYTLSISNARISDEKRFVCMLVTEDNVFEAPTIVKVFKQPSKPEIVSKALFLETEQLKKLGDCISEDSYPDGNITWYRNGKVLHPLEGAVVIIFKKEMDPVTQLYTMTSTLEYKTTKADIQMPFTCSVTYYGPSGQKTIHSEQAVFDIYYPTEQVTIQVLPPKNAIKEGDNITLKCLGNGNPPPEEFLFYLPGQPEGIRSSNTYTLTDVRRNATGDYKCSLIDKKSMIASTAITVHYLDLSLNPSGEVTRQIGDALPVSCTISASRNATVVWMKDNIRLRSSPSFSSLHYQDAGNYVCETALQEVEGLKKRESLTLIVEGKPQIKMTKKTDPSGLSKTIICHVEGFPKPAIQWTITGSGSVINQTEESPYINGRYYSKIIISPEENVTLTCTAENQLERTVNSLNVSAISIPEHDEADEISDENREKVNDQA


Legend:
[1] = target: T1, human CD166 protein (human); experiment: ELISA; relative to parental CD166 M9 vk1/HcB
[2] = target: T1, human CD166 protein (human); experiment: ELISA, human CD166 protein coated; apparent Kd

Row | Fold Increase in Kd [1] | Kd [2] | Binder
1 | 13 fold | 57.7 nM | CD166-16522.18-2001 (antibody, part only; not given: linkers and constant regions, V domains shown, not shown: small tags and cut ends) VH: QITLKESGPTLVKPTQTLTLTCTFSGFSLSTYGMGVGWIRQPPGKALEWLANIWWSEDKHYSPSLKSRLTITKDTSKNQVVLTMTNMDPVDTATYYCVQIDYGNDYAFTYWGQGTLVTVSS VL, part: LEGWCLHPACLWGAGISSGLLSGRSDNHDIVMTQSPLSLPVTPGEPASISCRSSKSLLHSNGITYLYWYLQKPGQSPQLLIYQMSNLASGVPDRFSGSGSGTDFTLKISRVEAEDVGVYYCAQNLELPYTFGQGTKLEIK
2 | 33 fold | 145 nM | CD166-16522.21-2001 (antibody, part only; not given: linkers and constant regions, V domains shown, not shown: small tags and cut ends) VH: QITLKESGPTLVKPTQTLTLTCTFSGFSLSTYGMGVGWIRQPPGKALEWLANIWWSEDKHYSPSLKSRLTITKDTSKNQVVLTMTNMDPVDTATYYCVQIDYGNDYAFTYWGQGTLVTVSS VL, part: CLHPLCISSGLLSGRSDNHDIVMTQSPLSLPVTPGEPASISCRSSKSLLHSNGITYLYWYLQKPGQSPQLLIYQMSNLASGVPDRFSGSGSGTDFTLKISRVEAEDVGVYYCAQNLELPYTFGQGTKLEIK
3 | 158 fold | 700 nM | CD166-16522.20-2001 (antibody, part only; not given: linkers and constant regions, V domains shown, not shown: small tags and cut ends) VH: QITLKESGPTLVKPTQTLTLTCTFSGFSLSTYGMGVGWIRQPPGKALEWLANIWWSEDKHYSPSLKSRLTITKDTSKNQVVLTMTNMDPVDTATYYCVQIDYGNDYAFTYWGQGTLVTVSS VL, part: LEGWCLHPLCLAGAGISSGLLSGRSDNHDIVMTQSPLSLPVTPGEPASISCRSSKSLLHSNGITYLYWYLQKPGQSPQLLIYQMSNLASGVPDRFSGSGSGTDFTLKISRVEAEDVGVYYCAQNLELPYTFGQGTKLEIK
4 | 11 fold | 49.2 nM | CD166-16522.19-2001 (antibody, part only; not given: linkers and constant regions, V domains shown, not shown: small tags and cut ends) VH: QITLKESGPTLVKPTQTLTLTCTFSGFSLSTYGMGVGWIRQPPGKALEWLANIWWSEDKHYSPSLKSRLTITKDTSKNQVVLTMTNMDPVDTATYYCVQIDYGNDYAFTYWGQGTLVTVSS VL, part: LEGWCLHPLCAWGAGISSGLLSGRSDNHDIVMTQSPLSLPVTPGEPASISCRSSKSLLHSNGITYLYWYLQKPGQSPQLLIYQMSNLASGVPDRFSGSGSGTDFTLKISRVEAEDVGVYYCAQNLELPYTFGQGTKLEIK
